Reference: patent publication US20210238298A1 (ALLIGATOR BIOSCIENCE, published 2021)

Target: T1, Human OX40 (R&D systems, #3358_OX) (human, UniProt P43489 29-216)
T1 construct: Bought; Several catalogue numbers are given for it; also called human OX40 (R&D Systems, 3388-OX); OX40-Fc (R&D systems, #3358_OX); not shown: Fc part
T1 sequence: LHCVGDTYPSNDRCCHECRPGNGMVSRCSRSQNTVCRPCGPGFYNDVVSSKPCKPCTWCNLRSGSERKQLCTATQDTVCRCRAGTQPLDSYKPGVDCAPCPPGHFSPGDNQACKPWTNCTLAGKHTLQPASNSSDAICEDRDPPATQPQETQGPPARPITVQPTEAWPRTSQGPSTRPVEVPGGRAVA
Test: ELISA: human OX40 coated, goat anti-human kappa light chain HRP, luminescence
Procedure: ELISA plates were coated with human with CTLA-4 (BMS, Orencia) or human OX40 (R&D Systems, 3388-OX) at 0.4 or 0.5 μg/ml, respectively. The ELISA plates were washed with PBST and then blocked with PBST+2% BSA for 1h at room temperature and then washed again with PBST. The bispecific molecules were added in dilution series to the plates and incubated for 1h at room temperature. The ELISA plates were washed, and binding was detected using goat anti human kappa light chain HRP for 1 h at room temperature. SuperSignal Pico Luminescent was used as substrate and luminescence was measured using Fluostar Optima.

B1: anti-OX40 antibody 1168/1135 (antibody, V domains shown)
VH: EVQLLESGGGLVQPGGSLRLSCAASGFTFSGSSMSWVRQAPGKGLEWVSSISYYGGYTYYADSVKGRFTISRDNSKNTLYLQMNSLRAEDTAVYYCARYFPHYYFDYWGQGTLVTVSS
VL: not shown
notes: Tested as IgG
  EC50 (read off the curve): ~0.2 nM
